One molecule from PMC3137634 (2011) can be followed below.

As usually defined, the Kd is a measure of binding affinity in units of concentration. A higher Kd goes with weaker binding.

Test [1] addresses T1, Human TNFR1/Fc (human, UniProt P19438 30-211).
T1 chain: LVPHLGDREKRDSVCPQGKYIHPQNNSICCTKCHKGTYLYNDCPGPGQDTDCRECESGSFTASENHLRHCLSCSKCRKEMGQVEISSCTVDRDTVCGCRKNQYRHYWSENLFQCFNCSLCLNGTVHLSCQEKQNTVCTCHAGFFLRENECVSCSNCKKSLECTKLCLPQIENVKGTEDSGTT
Nature of the test: SPR. Background: SPR reads the build-up and loss of mass on a sensor chip optically.

The target of test [2] is T1, Human TNFR1/Fc. Nature of the test: SPR.

B1: recombinant HP986 (natural protein)
chain: METFFSLHVPNRRIKQNGIIDEKSLEKIQERKNLSSLLYEHRARIIPLYKRINENHAKNKTINICENNLKLFYKDHQVCVNIDKKEIKLRYSEDEDDFRKYIIGGWFEEYIYCELLELLDKQVICDLRLNMILGVGNTNATQGDKHPIYTELDIAFSDGKNLYVAECKSGELKNKGVLAALSADAQIFGGANAKCILISIDGNLGQVLQEKVKILNIEFIFKYFKKNIENYINNSRR
Turning to B1, the affinity in test [1], expressed as Kd, was 0.0721 µM. The molecule further returned a Ka in test [2] of 1.39e+07 M⁻¹.
